Reference: publication doi:10.1101/2025.08.04.668392 (bioRxiv, 2025)
Where a chain is given by its changes, count along the chain named. Names may count otherwise. Values belong to the molecule of their own block, whether it stands above or below them.

Legend:
[1] = biological target: His-tagged Importin β (Impβ), H. sapiens, from pQE60-Impβ (human) (UniProt Q14974); assay: ITC
[2] = biological target: His-tagged Importin β (Impβ), H. sapiens, from pQE60-Impβ (human, UniProt Q14974 1-876); assay: ITC
[3] = biological target: Importin β (hsImpβ) of the purified trimeric complex Impβ:Imp7:H1.11L-chick (human, UniProt Q14974 1-876); assay: cross-linking
Sequence of Importin β (hsImpβ) of the purified trimeric complex Impβ:Imp7:H1.11L-chick (Q14974 whole entry, one chain of several): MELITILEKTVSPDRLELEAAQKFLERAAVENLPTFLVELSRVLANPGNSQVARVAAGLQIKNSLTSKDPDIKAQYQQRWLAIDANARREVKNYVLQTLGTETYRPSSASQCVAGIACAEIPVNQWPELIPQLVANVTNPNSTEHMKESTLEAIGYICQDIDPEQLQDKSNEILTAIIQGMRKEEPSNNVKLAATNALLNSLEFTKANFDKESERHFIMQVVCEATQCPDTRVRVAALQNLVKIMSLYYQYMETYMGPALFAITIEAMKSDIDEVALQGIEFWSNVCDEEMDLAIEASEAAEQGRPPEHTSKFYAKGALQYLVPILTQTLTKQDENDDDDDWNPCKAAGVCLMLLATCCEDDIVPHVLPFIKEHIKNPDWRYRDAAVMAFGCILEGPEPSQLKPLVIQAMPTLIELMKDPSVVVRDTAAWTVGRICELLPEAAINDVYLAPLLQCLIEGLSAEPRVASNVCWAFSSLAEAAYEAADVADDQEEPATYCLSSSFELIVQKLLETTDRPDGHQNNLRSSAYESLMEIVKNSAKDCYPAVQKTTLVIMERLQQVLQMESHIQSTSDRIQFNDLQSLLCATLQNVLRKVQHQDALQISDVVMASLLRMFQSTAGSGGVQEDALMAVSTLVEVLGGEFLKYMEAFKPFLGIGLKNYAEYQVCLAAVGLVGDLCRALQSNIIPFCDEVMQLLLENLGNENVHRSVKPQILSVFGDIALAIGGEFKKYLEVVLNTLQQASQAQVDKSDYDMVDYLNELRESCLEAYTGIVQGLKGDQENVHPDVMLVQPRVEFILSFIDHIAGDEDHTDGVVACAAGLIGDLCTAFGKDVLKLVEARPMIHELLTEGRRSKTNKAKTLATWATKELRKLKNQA

Sequence of His-tagged Importin β (Impβ), H. sapiens, from pQE60-Impβ (human) (Q14974 whole entry): as the sequence (Q14974 whole entry, one chain of several) above
Sequence of His-tagged Importin β (Impβ), H. sapiens, from pQE60-Impβ (Q14974 whole entry): as the sequence (Q14974 whole entry, one chain of several) above

B1: GST-tagged Imp7 (1002-1038) fragment F1019Y (domain or fragment, X. laevis, UniProt O42480 1002-1038, looked up)
chain: RRAAHESKMIEKHGGYKYNAPVVPSTFNFGNPAPGMN
fold reduction of affinity against the wild-type NlB region (1002-1038) [2]: ≥ 5 fold

B2: GST-tagged Imp7 (1002-1038) fragment F1028Y (domain or fragment, X. laevis, UniProt O42480 1002-1038, looked up)
chain: B1 chain with Y18F, F27Y
fold reduction of affinity against the wild-type NlB region (1002-1038) [2]: ≥ 5 fold

B3: GST-tagged Imp7 (1002-1038) fragment N1032G (domain or fragment, X. laevis, UniProt O42480 1002-1038, looked up)
chain: B1 chain with Y18F, N31G
fold increase of affinity against the wild-type NlB region (1002-1038) [2]: ~2 fold

B4: GST-tagged Imp7 (1002-1038) fragment F1030Y (domain or fragment, X. laevis, UniProt O42480 1002-1038, looked up)
chain: B1 chain with Y18F, F29Y
fold reduction of affinity against the wild-type NlB region (1002-1038) [2]: ≥ 5 fold

B5: GST-tagged Imp7 (1002-1038) fragment N1029S (domain or fragment, X. laevis, UniProt O42480 1002-1038, looked up)
chain: B1 chain with Y18F, N28S
fold increase of affinity against the wild-type NlB region (1002-1038) [2]: ~2 fold

B7: GST-NlB 1016-1030 (domain or fragment, X. laevis, UniProt O42480 1016-1030, looked up)
chain: GYKFNAPVVPSTFNF
fold reduction of affinity against the NlB region (1002-1038) [2]: ~4 fold

The remaining lines, values ahead:

fold reduction of affinity against the wild-type NlB region (1002-1038) [1]: 15 fold
Molecule: GST-tagged Imp7 (1002-1038) fragment V1023E (domain or fragment)

fold reduction of binding against the wild-type NlB region (1002-1038) [1]: 7 fold
Molecule: GST-tagged Imp7 (1002-1038) fragment P1024G (domain or fragment)

fold reduction of affinity against the wild-type NlB region (1002-1038) [1]: 4 fold
Molecule: GST-tagged Imp7 (1002-1038) fragment V1023T (domain or fragment)

binding result [3]: binds
B6: Histone H1.11L from chicken (natural protein, chicken (Gallus gallus), UniProt P08287 1-225, looked up)
chain: MSETAPAPAAEAAPAAAPAPAKAAAKKPKKAAGGAKARKPAGPSVTELITKAVSASKERKGLSLAALKKALAAGGYDVEKNNSRIKLGLKSLVSKGTLVQTKGTGASGSFRLSKKPGEVKEKAPKKKASAAKPKKPAAKKPAAAAKKPKKAVAVKKSPKKAKKPAASATKKSAKSPKKVTKAVKPKKAVAAKSPAKAKAVKPKAAKPKAAKPKAAKAKKAAAKKK
